According to paper PMC8643683, “Loss of full-length hnRNP R isoform impairs DNA damage response in motoneurons by inhibiting Yb1 recruitment to chromatin” (Nucleic Acids Research, 2021):

Molecular target: T1, Y-box binding protein 1 (Yb1), endogenous mouse (mouse (endogenous in primary mouse …, UniProt P62960 1-322))
T1 construct: also called Msy1; source: endogenous, primary mouse motoneuron lysate; endogenous, NSC-34 lysate
Assay: co-IP; Yb1 (sc-101198) or γ-H2AX (clone JBW301) immunoprecipitated on protein A or G Dynabeads from whole lysates of NSC-34 cells, 0 Gy or 9 Gy; IP lysis buffer (50 mM Tris-HCl pH 7.4, 140 mM NaCl, 1% Triton X-100) with 1 U Benzonase, overnight at 4°C; western blot
Conditions: partners not purified

T1 sequence (P62960 whole entry): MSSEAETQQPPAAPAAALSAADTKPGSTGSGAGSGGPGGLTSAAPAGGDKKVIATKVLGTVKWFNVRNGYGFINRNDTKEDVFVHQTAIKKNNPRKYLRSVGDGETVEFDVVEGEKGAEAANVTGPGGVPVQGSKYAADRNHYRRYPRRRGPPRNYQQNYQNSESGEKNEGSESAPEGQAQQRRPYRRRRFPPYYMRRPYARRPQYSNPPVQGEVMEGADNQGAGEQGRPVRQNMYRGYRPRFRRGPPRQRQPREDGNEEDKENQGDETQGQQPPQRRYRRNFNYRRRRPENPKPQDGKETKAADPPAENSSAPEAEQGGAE

fold preference of co-precipitation with Yb1 over hnRNP R-ΔN: 1.7 fold
B1: hnRNP R-FL (full-length hnRNP R isoform), endogenous (natural protein, mouse (endogenous in NSC-34), UniProt Q8VHM5 1-632, looked up)
chain: MANQVNGNAVQLKEEEEPMDTSSVTHTEHYKTLIEAGLPQKVAERLDEIFQTGLVAYVDLDERAIDALREFNEEGALSVLQQFKESDLSHVQNKSAFLCGVMKTYRQREKQGSKVQESTKGPDEAKIKALLERTGYTLDVTTGQRKYGGPPPDSVYSGVQPGIGTEVFVGKIPRDLYEDELVPLFEKAGPIWDLRLMMDPLSGQNRGYAFITFCGKEAAQEAVKLCDSYEIRPGKHLGVCISVANNRLFVGSIPKNKTKENILEEFSKVTEGLVDVILYHQPDDKKKNRGFCFLEYEDHKSAAQARRRLMSGKVKVWGNVVTVEWADPVEEPDPEVMAKVKVLFVRNLATTVTEEILEKSFSEFGKLERVKKLKDYAFVHFEDRGAAVKAMDEMNGKEIEGEEIEIVLAKPPDKKRKERQAARQASRSTAYEDYYYHPPPRMPPPMRGRGRGGRGGYGYPPDYYGYEDYYDDYYGYDYHDYRGGYEDPYYGYDDGYAVRGRGGGRGGRGAPPPPRGRGAPPPRGRAGYSQRGAPLGPPRGSRGGRGGPAQQQRGRGSRGARGNRGGNVGGKRKADGYNQPDSKRRQTNNQQNWGSQPIAQQPLQQGGDYSGNYGYNNDNQEFYQDTYGQQWK
notes: hnRNP R, mouse, full-length 632-amino acid protein encoded by transcript variant 1, translated from the AUG in exon 2; source: endogenous, NSC-34 lysate
